Data as given in the Human Domainome abundance scans (Beltran et al. 2025).

B1: Intersectin-1, residues 909 to 971; numbered along this chain, Q15811 (parent)
chain: QGEKVEGLQAQALYPWRAKKDNHLNFNKNDVITVLEQQDMWWFGEVQGQKGWFPKSYVKLISG

Variants of: B1
Experiment: abundance fitness (aPCA) (normalised: wild type 0, dead -1); higher = more abundant; growth selection in yeast, the domain comes from the species named
Settings: Homo sapiens

Abundance fitness, by site and new letter:
A10: E -0.821, Y 0.003, L -0.272, T -0.746, R -0.807, C -0.174, M -0.223, K -0.152, V 0.095, S -0.506, G -0.212, W -0.183
L8: T -0.039, S -0.117, G -0.048, Q 0.05, M 0.094, W -0.152, H -0.361, P -0.345, E -0.003, A 0.043, Y 0.112, I -0.136, D -0.236, R -0.087, V 0.14, K -0.136
Y14: A -0.09, Q -0.129, P -0.585, H -0.103, K -0.098, L 0.009, F -0.725, D -0.104, G -0.159, I -0.058, E 0.023, C -0.511
K4: H -0.168, L -0.248, C 0.207, Q -0.39, N -0.026, E -0.11, R -0.126, V -0.168, Y -0.039, S -0.014, G -0.588, F -0.193, P -0.29, W -0.08, A -0.159
E3: R -0.074, H -0.088, K -0.079, C -0.153, I 0.237, T -0.305, M -0.312, G -0.165, V -0.293, D -0.021, L -0.268, A -0.293, Q 0.026, S -0.319, F -0.169, N 0.02, W -0.332
G2: T -0.051, R -0.38, S -0.018, N -0.175, L -0.386, P -0.423, M 0.113, K 0.076
Q9: V -0.093, N 0.012, C -0.109, I -0.172, L -0.133, M 0.095, K -0.015, A -0.07, H 0.011, S -0.083, P -0.17, T -0.076, F -0.159, Y -0.047, G -0.331, W -0.109, E 0.008
Q11: Y -0.09, H -0.131, S -0.066, K -0.142, M -0.119, E -0.33, G -0.498, C -0.459, D -0.728, L -0.247, R -0.067, V -0.364, W -0.098, P -1.03, A -0.239, T -0.098
A12: C -0.474, W -1.02, T -0.841, S -0.577, K -0.773, G -0.404, R -0.997
E6: A -0.139, R -0.108, T -0.215, C -0.174, S -0.16, N -0.079, M -0.069, F -0.178, P 0.074, D -0.221, I -0.29, L -0.1, Y -0.119, K -0.306, V -0.122
G7: S 0.006, V 0.076, R -0.227, D -0.095, Q 0.164
V5: E -0.126, C -0.488, W -0.106, P -0.07, S -0.115, L -0.364, Q -0.029, D 0.126, I -0.151, M -0.073, G -0.155, A -0.008, H -0.657, T -0.237
L13: N -0.024, A -0.271, D -0.158, G -0.709, C -0.268, Q -0.2, M -0.204, I -0.393, T -0.233, E -0.267, V 0.091, S -0.412, R -0.126
